From paper PMC3690454, “14-3-3 Proteins Interact with a Hybrid Prenyl-Phosphorylation Motif to Inhibit G Proteins” (Cell, 2013) come the findings set out here.

Assay [1] deals with GST-14-3-3β / Rnd3 interaction. The assay is described as follows: Peptide competition in GST-14-3-3β pull-down of FLAG-Rnd3 from COS7 lysates. The note with it: peptide 10 μg/ml preincubated 15 min at 4°C with GST-14-3-3β; immunoblot. The format is binding. The method, then: Recombinant GST-14-3-3β was expressed and purified from E. coli (Extended Experimental Procedures). FLAG-Rnd3-transfected COS7 cells were lysed in LB buffer. After removal of insoluble material, precleared cell lysates were incubated at 4°C for 2 hr with the recombinant GST or GST-14-3-3β protein (5 μg) on glutathione beads (Amersham Biosciences). Beads were washed with LB buffer before eluting the proteins in LSB. The proteins were resolved by SDS-PAGE and analyzed by immunoblotting.
For peptide competition experiments (Table S3; Extended Experimental Procedures), peptides (10 μg/ml) were preincubated for 15 min at 4°C with the GST-14-3-3β prior to the addition of precleared cell lysates.
A general note: In western blotting, separated proteins are transferred to a membrane and probed.

The target of assay [2] is T1, 14-3-3ζ (Homo sapiens, UniProt P63104).
T1 construct: hexa-His; made in house; host or cells: E. coli BL21(DE3) Star
T1 sequence (P63104 1-245): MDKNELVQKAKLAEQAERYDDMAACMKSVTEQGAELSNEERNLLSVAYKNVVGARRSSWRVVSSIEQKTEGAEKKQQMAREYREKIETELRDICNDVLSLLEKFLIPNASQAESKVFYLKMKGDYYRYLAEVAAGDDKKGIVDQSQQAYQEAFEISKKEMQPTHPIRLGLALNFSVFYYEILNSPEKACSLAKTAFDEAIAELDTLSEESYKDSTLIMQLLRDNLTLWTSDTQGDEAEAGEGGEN
As to the kind of experiment: Isothermal titration calorimetry of Rnd3 C-terminal peptides with 14-3-3ζ. The format is binding. As to conditions: ITC. As to the method:
ITC measurements were carried out using a VP-ITC200 instrument (GE Healthcare). The 14-3-3ζ domain (see Extended Experimental Procedures) was used at 50–60 μM in ITC buffer (50 mM Tris [pH 7.5]), 100 mM NaCl, 1 mM TCEP). Rnd3 C-terminal peptides were solubilized in ITC buffer and used at 500–600 μM. Titrations were carried out at 25°C in triplicate. Each titration was fitted to a simple one-site binding model using the Origin software provided with the instrument. Titrations with nonbinding peptides were carried out at 15°C and 25°C.
GST-14-3-3β protein was expressed as previously reported ([Yaffe et al., 1997]). A hexa-His-tagged version of 14-3-3ζ was expressed and purified essentially as previously reported ([Kostelecky et al., 2009]). In brief, the E. coli strain BL21(DE3) Star (Invitrogen) was transformed with the expression plasmid that was maintained by 34 μg/ml chloramphenicol. E. coli cells were grown to OD600nm of 0.7-0.8 in TB medium at 37°C and protein expression induced by 1 mM IPTG for 5 hr at 30°C. Pelleted cells were suspended in buffer A (25 mM Tris [pH 7.5], 100 mM NaCl, 1 mM EDTA, and 1 mM DTT) and disrupted by sonication. Insoluble material was cleared by high-speed centrifugation and the cleared lysate applied to a 5 ml HisTrap column using an AKTA system (GE Healthcare). The 14-3-3ζ protein was eluted with a linear gradient (0–500 mM) of Imidazole in buffer A. Finally, the protein was subjected to size-exclusion chromatography using a High-Load S200 pg column. As previously described, 14-3-3ζ eluted as a dimer with a molecular weight of ∼60 kDa. The final yield of 14-3-3ζ was 30–40 mg per liter of TB medium.
In general terms: ITC needs no label: the signal is the heat of the interaction.

The target in assay [3] is T1, 14-3-3ζ. The assay is described as follows: Biolayer interferometry (Octet RED96), immobilised biotinylated peptides, 14-3-3ζ in solution. The note with it: determined by steady-state analysis, typical experiment (n ≥ 3). The format is binding. The method, then:
Biolayer interferometry was carried out using an Octet RED96 instrument (ForteBio). Biotinylated peptides were immobilized on streptavadin-coated biosensors (ForteBio) at a concentration of 1 μg/ml in BI buffer (25 mM Tris, 150 mM NaCl, 0.1% Tween-20), for 300 s. The immobilization typically reached a response level of 2 nm. Association and dissociation curves were obtained through addition of a dilution series of 14-3-3ζ ([…]) for 300 s followed by dissociation in BI buffer for 300 s using the Octet acquisition software. The binding data were fitted using the Octet analysis software.
(Biolayer interferometry detects binding as a change in optical thickness at a sensor tip.)

A further assay relates to pS210-Rnd3. As to the kind of experiment: pS210-Rnd3 immunoblot in treated COS7 cells. The format is cell-based. The note with it: 2 hr, PMA 100 nM, BIM1 1 μM. The method, then: (§1) COS7 cells grown in Dulbecco’s modified Eagle’s medium (DMEM) containing 10% bovine fetal calf serum and penicillin/streptomycin (Invitrogen) were electroporated with 5 μg DNA at 250 V and 960 μF using 0.4 cm Gene Pulser Cuvettes (Bio-Rad) in 250 μl of electroporation buffer (120 mM KCl, 10 mM K2PO4/KH2PO4 [pH 7.6], 25 mM HEPES [pH 7.6], 2 mM MgCl2, and 0.5% Ficoll). Cells were analyzed 24 hr after transfection. NIH 3T3 cells grown in DMEM containing 10% donor bovine serum and penicillin/streptomycin were transfected using FuGENE 6 (Roche) according to the manufacturer’s instructions. Where indicated, cells were treated for 20 min with 100 nM calyculin A (Alexis); for 2 hr with 100 nM staurosporine (Calbiochem), 20 μM H-1152 (Calbiochem), 1 μM bisindolylmaleimide I (BIM1, Calbiochem), or 100 nM phorbol-12-myristate-13-acetate (PMA, Cell Signaling Technology); and for 16 hr with 10 μM L-744,832 farnesyltransferase inhibitor (FTI, Calbiochem).
Rabbit polyclonal antisera were raised against phosphorylated Rnd3-S210 peptide (KNVKRNKpSQRA) by Eurogentec, Seraing, Belgium. Nonspecific antibodies were removed through a nonphosphopeptide (KNVKRNKSQRA) column followed by a specific phosphoenrichment of the antibodies by affinity purification using a phosphopeptide column. […]

The subject of a further assay is Rnd3/14-3-3 interaction. As to the kind of experiment: Co-immunoprecipitation of Rnd3 with 14-3-3 proteins from treated COS7 cells. The format is cell-based. The note with it: staurosporine 100 nM 2 hr, calyculin A 100 nM 20 min, FTI (L-744,832) 10 μM 16 hr, immunoblot. The method, then: as §1
Transfected COS7 cells were lysed in lysis buffer LB (1% Triton X-100, 20 mM Tris–HCl [pH 8], 130 mM NaCl, 1 mM dithiothreitol [DTT], 10 mM sodium fluoride, complete EDTA-free protease inhibitor cocktail [Roche], phosphatase inhibitor cocktails [set II+IV, Calbiochem]). After centrifugation (13,000 g, 4°C, 10 min), soluble proteins were precleared then incubated with either mouse nonimmune IgG as a control, mouse anti-HA (HA-7) or mouse anti-FLAG (M2) antibody on agarose beads (Sigma-Aldrich) for 2 hr at 4°C. Beads were washed five times with lysis buffer (containing 260 mM NaCl), then bound proteins were eluted in Laemmli sample buffer (LSB), resolved by SDS–PAGE and analyzed by immunoblotting.

In the next assay the target is hexa-His-tagged 14-3-3ζ (UniProt P63104). As to the kind of experiment: ITC; VP-ITC200; 14-3-3ζ at 50–60 μM, Rnd3 peptides at 500–600 μM; 50 mM Tris pH 7.5, 100 mM NaCl, 1 mM TCEP; 25°C, one-site model; non-binding peptides at 15°C and 25°C.
Assay [4] addresses biotinylated Rnd3 C-terminal peptide, phosphorylated on S240 and geranylgeranylated (+P+GG) (human). The assay is described as follows: BLI; Octet RED96; biotinylated peptides immobilised on streptavidin biosensors; dilution series of 14-3-3ζ; 25 mM Tris, 150 mM NaCl, 0.1% Tween-20; KD of +P-F by steady-state analysis.
In assay [5] the target is biotinylated Rnd3 C-terminal peptide, phosphorylated on S240 (+P−F) (human). The assay is described as above.
For assay [6], the target named is biotinylated Rnd3 C-terminal peptide, phosphorylated on S240 and farnesylated on C241 (+P+F) (human). The assay is described as above.
The target in assay [7] is biotinylated Rnd3 C-terminal peptide, phosphorylated on S240 and geranylated (+P+G) (human). The description is as above.
Assay [8] concerns the target biotinylated Rnd3 C-terminal peptide, phosphorylated on S240 and isoprenylated (+P+Ipr) (human). Described as above.

Square brackets hold non-standard residues; d marks the D form. Peptide text beside a SMILES is read from it. pS = N[C@@H](COP(=O)(O)O)C(=O)O

Consider `CC(C)C[C@H](NC(=O)[C@@H](N)CC(=O)O)C(=O)N[C@@H](CCCNC(=N)N)C(=O)N[C@@H](CCCCN)C(=O)N[C@@H](CC(=O)O)C(=O)N[C@@H](CCCCN)C(=O)N[C@@H](C)C(=O)N[C@@H](CCCCN)C(=O)N[C@@H](COP(=O)(O)O)C(=O)N[C@@H](CS)C(=O)O` [+P-F] (H-DLRKDKAK[pS]C-OH), for which the “inhibition of the interaction between GST-14-3-3β and Rnd3” value in assay [1] was “only slightly inhibited”. At 14-3-3ζ [2] (25°C, 50 mM Tris pH 7.5, 100 mM NaCl, 1 mM TCEP, one-site model, mean ± SD, n = 3), this molecule came in with a Kd of 1060 ± 40 nM. Moreover, the “Stoichiometry (N)” value on 14-3-3ζ [2] (25°C, 14-3-3ζ 50–60 μM, peptide 500–600 μM, 50 mM Tris pH 7.5, 100 mM NaCl, 1 mM TCEP, one-site model, mean ± SD, n = 3) was 0.89 ± 0.017. For the same molecule, on 14-3-3ζ [2] (25°C, mean ± SD, n = 3), the TΔS stood at 2.469 ± 0.231 kcal/mol, the ΔG is -8.152 ± 0.027 kcal/mol and the ΔH is -5.683 ± 0.204 kcal/mol. The “N (printed in Figure 5C)” value on 14-3-3ζ [2] (fitted curve of Figure 5C) came out at 0.89. This molecule returned a Kd at 14-3-3ζ [3] of 1300 nM.
Consider `CN(C)CCCn1cc(C2=C(c3c[nH]c4ccccc34)C(=O)NC2=O)c2ccccc21` [BIM1, bisindolylmaleimide I], for which the “effect on pS210-Rnd3” value in the assay on pS210-Rnd3 is reported as “reduced”.
As to `CC[C@H](C)[C@@H](CO[C@@H](Cc1ccccc1)C(=O)N[C@@H](CCS(C)(=O)=O)C(=O)OC(C)C)NC[C@@H](N)CS` [FTI, L-744,832], the “effect on Rnd3/14-3-3 interaction” value in the assay with Rnd3/14-3-3 interaction is “prevented”.
As for `CCCCCCCCCCCCCC(=O)O[C@@H]1[C@@H](C)[C@@]2(O)[C@@H](C=C(CO)C[C@]3(O)C(=O)C(C)=C[C@@H]23)[C@@H]2C(C)(C)[C@]12OC(C)=O` [PMA, phorbol-12-myristate-13-acetate], the “effect on pS210-Rnd3” value in the assay on pS210-Rnd3 is “increase”.
For the molecule `COC[C@@H]([C@H](O)[C@H](O)C(=O)NCC[C@H](C)c1nc(/C=C/C[C@@H]2O[C@]3(C[C@@H](O)[C@@H]2C)O[C@H]([C@H](C[C@H](O)[C@H](C)[C@H](O)[C@H](C)/C=C(C)/C(C)=C/C=C/C(C)=C\C#N)OC)[C@H](OP(=O)(O)O)C3(C)C)co1)N(C)C` [calyculin A], in the assay on Rnd3/14-3-3 interaction, the “effect on Rnd3/14-3-3 interaction” value is “increased”.
On the same count and under the same terms, to `CN[C@@H]1C[C@H]2O[C@@](C)([C@@H]1OC)n1c3ccccc3c3c4c(c5c6ccccc6n2c5c31)C(=O)NC4` [staurosporine] belongs “reduced”.
With “N-CDRSKpSAPTS-C [PKC, reference compound]”, the “inhibition of the interaction between GST-14-3-3β and Rnd3” value in assay [1] is on record as “inhibited”.
In the assay with hexa-His-tagged 14-3-3ζ, “biotinylated Rnd3 C-terminal peptide, phosphorylated on S240 and farnesylated on C241 (+P+F)” gave a dH of -2.96 kcal/mol and a stoichiometry N of 0.83.
Regarding “hexa-His-tagged 14-3-3ζ (from UniProt P63104 1-245) (natural protein)”, the Kd turned out to be 23.2 nM in [4]; 1300 nM in assay [5]; 32.4 nM in [6]; 56.5 nM in assay [7]; 556 nM in assay [8]. Further, the off-rate constant (koff) in assay [4] worked out at 0.021 s⁻¹; in [6], 0.028 s⁻¹; in assay [7] it was 0.032 s⁻¹; in assay [8], 0.13 s⁻¹. For the same molecule, the kon in [4] was 890000 M⁻¹ s⁻¹; in assay [6] it was 860000 M⁻¹ s⁻¹; in [7], 570000 M⁻¹ s⁻¹; in assay [8] it was 240000 M⁻¹ s⁻¹.

As a reminder, the Kd is the constant that tells how readily two partners part at equilibrium. Low values mean higher affinity, high ones lower affinity. As usually defined, the stoichiometry N is the number of molecules, sites or subunits per partner or assembly. One may read the koff as the rate constant with which the complex falls apart. The low end stands for slow dissociation, the high end for fast dissociation. Broadly, the kon is the second-order rate constant of association.
